Measured values published in article PMC3539201 (Journal of cell science, 2008).

B1: GFP-KASH-1 (domain or fragment)
chain: not shown
B2: GFP-KASH-3α (domain or fragment, mouse, UniProt Q4FZC9 917-975, looked up)
chain: CSLLQKACRVALPLQLLLLLFLLLLFLLPAGEEERSCALANNFARSFALMLRYNGPPPT
B3: GFP-KASH-2 (domain or fragment)
chain: not shown

Each binder was assayed against T1, torsinA (endogenous, 293T cells) (human (endogenous in 293T), UniProt O14656 21-332) (assay: co-IP).
T1 sequence (looked up): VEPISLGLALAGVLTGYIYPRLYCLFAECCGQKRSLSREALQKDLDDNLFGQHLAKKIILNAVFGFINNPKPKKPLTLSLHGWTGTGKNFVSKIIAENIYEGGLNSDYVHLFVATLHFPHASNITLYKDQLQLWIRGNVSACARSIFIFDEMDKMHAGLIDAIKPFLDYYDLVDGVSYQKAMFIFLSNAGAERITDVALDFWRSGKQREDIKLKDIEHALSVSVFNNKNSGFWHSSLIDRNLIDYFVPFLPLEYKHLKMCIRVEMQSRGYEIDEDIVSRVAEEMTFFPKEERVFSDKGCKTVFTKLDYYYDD

First: B1
Second: B2
The “percentage immunoprecipitated from lysates by torsinA antibodies” value of the first is higher: 21% for the first, 11% for the second.

For B3, the “percentage immunoprecipitated from lysates by torsinA antibodies” value was 12%.
